According to US20260042847A1, “CYSTEINE ENGINEERED ANTIBODY CONSTRUCTS, CONJUGATES AND METHODS OF USE” (ZYMEWORKS INC., priority 2021, published 2026):

Test system: mid c-Met expressing colorectal cancer xenograft model HT-29
Assay: In vivo anti-tumor activity, HT-29 xenograft
Parameters: species or system balb/c nude mice
Details: single IV dose, toxin-matched 6 (DAR1), 3 (DAR2), 2 (DAR3), 1.5 (DAR4) mg/kg, FIG. 7A
Procedure: For the HT-29 model, tumor cell suspensions (3×10^6 cells in 0.1 ml PBS) were implanted subcutaneously into balb/c nude mice. When mean tumor volume reached ˜160 mm3, the animals were randomly assigned to groups (n=8 per group) and treated with a single IV dose of test articles as shown in Table 14.1. Dose levels of ADCs at different DARs were molar matched to toxin. Tumor volume and body weight were measured twice weekly with a study duration of 32 days.

B1: v17427-MCvcPABC-MMAE (conjugate, chains of the INN, looked up)
VH: QVQLVQSGAEVKKPGASVKVSCKASGYIFTAYTMHWVRQAPGQGLEWMGWIKPNNGLANYAQKFQGRVTMTRDTSISTAYMELSRLRSDDTAVYYCARSEITTEFDYWGQGTLVTVSS
VL: DIVMTQSPDSLAVSLGERATINCKSSESVDSYANSFLHWYQQKPGQPPKLLIYRASTRESGVPDRFSGSGSGTDFTLTISSLQAEDVAVYYCQQSKEDPLTFGGGTKVEIK
modifications: IgG, HetFc MC-vc-PABC-MMAE
- tumor growth inhibition compared to vehicle: did not significantly inhibit tumor growth
